One block for each sequence: values may come before it.
How the values were obtained:
Grb2 SH2 = Grb2 SH2 (UniProt P62993); test: SH2 binding enrichment of the phosphorylated peptide, bacterial display (enrichment ratio); higher = better substrate or ligand; peptides without Tyr show the background
c-Src SH2 = test: as above
SHP2-C SH2 = test: as above
Fes = Fes (UniProt P07332); test: phosphorylation enrichment, bacterial display (enrichment ratio); higher = better substrate or ligand; peptides without Tyr show the background
c-Abl (mouse) = test: as above
Hck = Hck (UniProt P08631); test: as above
FGFR1 = FGFR1 (UniProt P11362); test: as above
Fer (mouse) = test: as above
MERTK = MERTK (UniProt Q12866); test: as above
FGFR3 = FGFR3 (UniProt P22607); test: as above
AncSZ = test: as above
c-Src = test: as above
EPHB1 = EPHB1 (UniProt P54762); test: as above
Jak2 = Jak2 (UniProt O60674); test: as above
EPHB2 = EPHB2 (UniProt P29323); test: as above
Fyn = Fyn (UniProt P06241); test: as above
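For SH2 binding enrichment of the phosphorylated peptide, bacterial display in this document: peptide library displayed on the E. coli surface as eCPX fusions, selected cells deep-sequenced, score is each peptide's frequency after selection divided by its frequency in the input.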
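For phosphorylation enrichment, bacterial display in this document: 11-residue human phosphosite peptides and single-mutation variants displayed on the E. coli surface, counted by deep sequencing, each peptide's frequency after selection divided by its frequency in the unselected input library; frequency after pTyr selection over input frequency; kinase dosed for 20-30% of maximal phosphorylation in three min.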

Chain of MERTK (Q12866 whole entry, looked up): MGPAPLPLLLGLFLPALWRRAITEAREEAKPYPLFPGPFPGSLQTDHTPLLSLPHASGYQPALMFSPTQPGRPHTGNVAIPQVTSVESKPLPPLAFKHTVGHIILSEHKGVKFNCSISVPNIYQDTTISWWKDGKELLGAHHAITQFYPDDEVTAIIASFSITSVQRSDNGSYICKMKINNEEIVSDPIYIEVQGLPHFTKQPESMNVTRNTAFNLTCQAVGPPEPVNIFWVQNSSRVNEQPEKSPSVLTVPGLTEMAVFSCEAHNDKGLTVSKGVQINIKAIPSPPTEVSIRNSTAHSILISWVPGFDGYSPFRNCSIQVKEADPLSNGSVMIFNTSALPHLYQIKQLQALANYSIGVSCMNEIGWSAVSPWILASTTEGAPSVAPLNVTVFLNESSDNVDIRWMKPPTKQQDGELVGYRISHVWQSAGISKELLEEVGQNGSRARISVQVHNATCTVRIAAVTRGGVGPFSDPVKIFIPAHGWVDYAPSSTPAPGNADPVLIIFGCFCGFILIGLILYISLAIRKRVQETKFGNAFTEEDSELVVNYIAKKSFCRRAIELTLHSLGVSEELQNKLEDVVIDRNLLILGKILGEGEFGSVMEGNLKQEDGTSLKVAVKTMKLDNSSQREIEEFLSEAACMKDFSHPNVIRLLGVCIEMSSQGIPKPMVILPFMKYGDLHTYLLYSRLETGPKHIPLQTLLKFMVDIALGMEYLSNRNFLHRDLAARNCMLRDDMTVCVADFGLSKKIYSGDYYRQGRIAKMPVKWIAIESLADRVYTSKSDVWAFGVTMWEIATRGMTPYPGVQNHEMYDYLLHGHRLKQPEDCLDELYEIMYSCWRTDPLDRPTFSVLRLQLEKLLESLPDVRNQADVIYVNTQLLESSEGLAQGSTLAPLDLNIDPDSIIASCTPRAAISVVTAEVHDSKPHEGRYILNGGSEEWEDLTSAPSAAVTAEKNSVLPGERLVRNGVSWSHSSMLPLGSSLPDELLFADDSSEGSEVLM
Chain of Hck (P08631 whole entry, looked up): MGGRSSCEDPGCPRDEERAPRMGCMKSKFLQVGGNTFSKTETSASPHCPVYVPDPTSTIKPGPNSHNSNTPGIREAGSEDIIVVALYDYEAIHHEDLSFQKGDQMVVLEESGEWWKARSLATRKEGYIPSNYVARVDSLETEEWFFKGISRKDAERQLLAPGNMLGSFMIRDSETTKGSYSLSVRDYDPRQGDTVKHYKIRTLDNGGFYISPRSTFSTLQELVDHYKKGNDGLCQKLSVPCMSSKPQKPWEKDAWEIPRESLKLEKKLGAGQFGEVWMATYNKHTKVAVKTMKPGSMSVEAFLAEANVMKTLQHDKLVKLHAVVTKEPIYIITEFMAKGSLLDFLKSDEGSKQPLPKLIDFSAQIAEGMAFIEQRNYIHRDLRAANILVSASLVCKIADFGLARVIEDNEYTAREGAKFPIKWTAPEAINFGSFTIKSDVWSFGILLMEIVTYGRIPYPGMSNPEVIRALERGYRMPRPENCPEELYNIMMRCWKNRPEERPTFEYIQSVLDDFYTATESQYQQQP
Chain of FGFR3 (P22607 whole entry, looked up): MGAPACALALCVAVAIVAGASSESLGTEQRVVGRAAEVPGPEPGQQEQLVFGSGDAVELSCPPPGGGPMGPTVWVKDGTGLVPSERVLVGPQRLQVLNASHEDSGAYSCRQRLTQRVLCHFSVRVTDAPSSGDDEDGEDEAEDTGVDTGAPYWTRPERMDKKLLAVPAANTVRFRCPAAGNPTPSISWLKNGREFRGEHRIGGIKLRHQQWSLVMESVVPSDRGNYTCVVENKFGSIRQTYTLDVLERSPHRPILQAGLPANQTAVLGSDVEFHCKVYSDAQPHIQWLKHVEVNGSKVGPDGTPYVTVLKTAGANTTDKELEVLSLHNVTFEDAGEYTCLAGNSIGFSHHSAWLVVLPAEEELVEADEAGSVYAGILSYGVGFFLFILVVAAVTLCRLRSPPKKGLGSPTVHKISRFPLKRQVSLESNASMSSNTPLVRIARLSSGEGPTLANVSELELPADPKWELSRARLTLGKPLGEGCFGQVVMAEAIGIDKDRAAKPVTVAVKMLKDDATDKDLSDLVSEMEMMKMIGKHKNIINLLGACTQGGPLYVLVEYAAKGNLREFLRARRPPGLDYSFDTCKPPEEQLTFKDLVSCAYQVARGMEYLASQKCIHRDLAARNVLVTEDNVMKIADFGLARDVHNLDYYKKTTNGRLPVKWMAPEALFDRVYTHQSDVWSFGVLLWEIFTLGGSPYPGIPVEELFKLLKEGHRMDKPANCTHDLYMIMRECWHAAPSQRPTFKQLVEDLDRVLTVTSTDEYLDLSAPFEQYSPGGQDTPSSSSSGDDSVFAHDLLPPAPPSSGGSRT
Chain of Fyn (P06241 whole entry, looked up, the tested form may be a part): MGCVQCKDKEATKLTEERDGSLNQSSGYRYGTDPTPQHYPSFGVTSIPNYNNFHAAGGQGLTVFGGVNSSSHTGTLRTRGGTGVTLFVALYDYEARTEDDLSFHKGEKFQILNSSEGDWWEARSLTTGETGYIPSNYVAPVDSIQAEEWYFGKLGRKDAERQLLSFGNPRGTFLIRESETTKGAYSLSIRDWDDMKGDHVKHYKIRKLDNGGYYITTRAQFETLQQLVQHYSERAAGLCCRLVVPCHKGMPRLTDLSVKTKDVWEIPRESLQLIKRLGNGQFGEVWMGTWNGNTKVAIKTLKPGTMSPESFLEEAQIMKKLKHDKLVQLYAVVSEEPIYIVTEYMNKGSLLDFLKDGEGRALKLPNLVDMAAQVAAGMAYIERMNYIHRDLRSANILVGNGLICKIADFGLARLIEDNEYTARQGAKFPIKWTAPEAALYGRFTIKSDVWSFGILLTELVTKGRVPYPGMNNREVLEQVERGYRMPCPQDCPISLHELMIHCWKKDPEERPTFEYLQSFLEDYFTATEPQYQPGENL
Chain of Fes (P07332 whole entry, looked up): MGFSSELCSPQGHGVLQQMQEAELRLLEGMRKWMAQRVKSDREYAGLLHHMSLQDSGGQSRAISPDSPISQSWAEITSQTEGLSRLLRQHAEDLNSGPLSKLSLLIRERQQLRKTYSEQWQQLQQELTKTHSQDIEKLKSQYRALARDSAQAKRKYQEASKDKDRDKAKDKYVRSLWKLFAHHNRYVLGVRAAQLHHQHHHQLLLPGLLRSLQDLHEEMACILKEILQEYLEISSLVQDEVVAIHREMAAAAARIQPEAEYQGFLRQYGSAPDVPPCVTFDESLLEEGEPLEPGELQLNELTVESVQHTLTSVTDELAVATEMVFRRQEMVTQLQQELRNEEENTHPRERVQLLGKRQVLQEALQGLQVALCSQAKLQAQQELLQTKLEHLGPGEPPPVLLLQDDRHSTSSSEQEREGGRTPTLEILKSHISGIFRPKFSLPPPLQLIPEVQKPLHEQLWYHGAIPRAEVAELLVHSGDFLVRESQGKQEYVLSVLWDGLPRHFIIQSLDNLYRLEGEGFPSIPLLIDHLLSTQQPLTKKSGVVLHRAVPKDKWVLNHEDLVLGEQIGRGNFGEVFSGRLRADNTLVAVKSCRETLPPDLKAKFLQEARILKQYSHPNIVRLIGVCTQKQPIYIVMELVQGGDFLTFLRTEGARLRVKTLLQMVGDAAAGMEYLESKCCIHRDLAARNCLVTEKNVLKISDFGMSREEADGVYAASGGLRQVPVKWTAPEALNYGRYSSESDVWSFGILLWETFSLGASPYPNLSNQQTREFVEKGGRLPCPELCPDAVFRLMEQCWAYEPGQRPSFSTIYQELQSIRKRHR
Chain of Jak2 (O60674 whole entry, looked up): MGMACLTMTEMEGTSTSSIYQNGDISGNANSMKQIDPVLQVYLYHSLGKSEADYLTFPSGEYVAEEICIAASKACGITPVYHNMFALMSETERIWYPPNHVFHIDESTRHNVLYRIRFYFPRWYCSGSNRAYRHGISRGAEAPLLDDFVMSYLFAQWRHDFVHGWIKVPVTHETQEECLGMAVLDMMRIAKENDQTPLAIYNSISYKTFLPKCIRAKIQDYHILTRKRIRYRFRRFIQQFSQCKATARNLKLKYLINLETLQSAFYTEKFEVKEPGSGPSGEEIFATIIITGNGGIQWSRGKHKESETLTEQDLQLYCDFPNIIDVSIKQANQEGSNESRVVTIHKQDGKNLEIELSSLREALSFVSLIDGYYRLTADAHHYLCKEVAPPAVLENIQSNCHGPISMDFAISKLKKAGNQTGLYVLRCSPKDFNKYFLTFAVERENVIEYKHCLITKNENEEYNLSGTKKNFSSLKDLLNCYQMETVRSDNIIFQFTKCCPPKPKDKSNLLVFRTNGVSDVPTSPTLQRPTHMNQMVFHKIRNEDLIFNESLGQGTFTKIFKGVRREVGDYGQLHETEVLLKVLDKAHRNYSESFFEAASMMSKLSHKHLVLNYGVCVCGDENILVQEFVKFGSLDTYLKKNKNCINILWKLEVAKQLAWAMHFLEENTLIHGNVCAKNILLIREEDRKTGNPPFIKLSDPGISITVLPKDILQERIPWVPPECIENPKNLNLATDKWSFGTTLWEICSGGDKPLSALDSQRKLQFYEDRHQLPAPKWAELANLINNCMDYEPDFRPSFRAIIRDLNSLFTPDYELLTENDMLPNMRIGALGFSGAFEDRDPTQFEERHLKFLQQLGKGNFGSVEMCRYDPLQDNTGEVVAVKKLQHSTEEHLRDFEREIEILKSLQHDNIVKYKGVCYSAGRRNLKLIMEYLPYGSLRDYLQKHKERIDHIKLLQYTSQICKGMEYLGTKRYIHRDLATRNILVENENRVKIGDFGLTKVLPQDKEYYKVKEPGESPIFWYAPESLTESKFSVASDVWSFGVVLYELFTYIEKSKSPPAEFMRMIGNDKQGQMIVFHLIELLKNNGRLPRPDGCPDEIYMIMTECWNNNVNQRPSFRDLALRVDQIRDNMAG

Sequence: KDAGDYKFKAK [LRIT3_Y326_C328Y_YF]
- SH2 binding enrichment (Grb2 SH2): 0.792
- SH2 binding enrichment (c-Src SH2): 0.504
- SH2 binding enrichment (SHP2-C SH2): 0.853
- phosphorylation enrichment (Fes): 0.613
- phosphorylation enrichment (c-Abl (mouse)): 0.338
- phosphorylation enrichment (Hck): 0.38
- phosphorylation enrichment (FGFR1): 0.421
- phosphorylation enrichment (Fer (mouse)): 0.278
- phosphorylation enrichment (MERTK): 0.443
- phosphorylation enrichment (FGFR3): 0.362
- phosphorylation enrichment (AncSZ): 0.406
- phosphorylation enrichment (c-Src): 0.305
- phosphorylation enrichment (EPHB1): 0.345
- phosphorylation enrichment (Jak2): 0.392
- phosphorylation enrichment (EPHB2): 0.259
- phosphorylation enrichment (Fyn): 0.322

Sequence: KDFETYQPFQN [CTNND2_Y1157_YF]
- SH2 binding enrichment (Grb2 SH2): 0.948
- SH2 binding enrichment (c-Src SH2): 0.544
- SH2 binding enrichment (SHP2-C SH2): 0.699
- phosphorylation enrichment (Fes): 1.02
- phosphorylation enrichment (c-Abl (mouse)): 0.741
- phosphorylation enrichment (Hck): 5.76
- phosphorylation enrichment (FGFR1): 0.54
- phosphorylation enrichment (Fer (mouse)): 0.612
- phosphorylation enrichment (MERTK): 0.463
- phosphorylation enrichment (FGFR3): 0.603
- phosphorylation enrichment (AncSZ): 1.13
- phosphorylation enrichment (c-Src): 4.18
- phosphorylation enrichment (EPHB1): 0.69
- phosphorylation enrichment (Jak2): 0.869
- phosphorylation enrichment (EPHB2): 0.786
- phosphorylation enrichment (Fyn): 4.76

Sequence: KDHLDYKYQPR [SOX9_Y172_P170L]
- SH2 binding enrichment (Grb2 SH2): 1.18
- SH2 binding enrichment (c-Src SH2): 0.697
- SH2 binding enrichment (SHP2-C SH2): 1.09
- phosphorylation enrichment (Fes): 0.704
- phosphorylation enrichment (c-Abl (mouse)): 0.451
- phosphorylation enrichment (Hck): 0.415
- phosphorylation enrichment (FGFR1): 0.462
- phosphorylation enrichment (Fer (mouse)): 0.445
- phosphorylation enrichment (MERTK): 0.418
- phosphorylation enrichment (FGFR3): 0.629
- phosphorylation enrichment (AncSZ): 0.585
- phosphorylation enrichment (c-Src): 0.433
- phosphorylation enrichment (EPHB1): 0.419
- phosphorylation enrichment (Jak2): 0.452
- phosphorylation enrichment (EPHB2): 0.448
- phosphorylation enrichment (Fyn): 0.441

Sequence: KDHPDYKFQAR [SOX10_Y171_P175A_YF]
- SH2 binding enrichment (Grb2 SH2): 0.835
- SH2 binding enrichment (c-Src SH2): 0.516
- SH2 binding enrichment (SHP2-C SH2): 0.813
- phosphorylation enrichment (Fes): 0.658
- phosphorylation enrichment (c-Abl (mouse)): 0.626
- phosphorylation enrichment (Hck): 0.482
- phosphorylation enrichment (FGFR1): 0.466
- phosphorylation enrichment (Fer (mouse)): 0.485
- phosphorylation enrichment (MERTK): 0.405
- phosphorylation enrichment (FGFR3): 0.489
- phosphorylation enrichment (AncSZ): 0.757
- phosphorylation enrichment (c-Src): 0.489
- phosphorylation enrichment (EPHB1): 0.409
- phosphorylation enrichment (Jak2): 0.559
- phosphorylation enrichment (EPHB2): 0.408
- phosphorylation enrichment (Fyn): 0.458

Sequence: KDKLPYPYDDP [GPX2_Y125]
- SH2 binding enrichment (Grb2 SH2): 0.889
- SH2 binding enrichment (c-Src SH2): 1.67
- SH2 binding enrichment (SHP2-C SH2): 0.757
- phosphorylation enrichment (Fes): 1.17
- phosphorylation enrichment (c-Abl (mouse)): 0.584
- phosphorylation enrichment (Hck): 0.435
- phosphorylation enrichment (FGFR1): 0.562
- phosphorylation enrichment (Fer (mouse)): 0.455
- phosphorylation enrichment (MERTK): 0.42
- phosphorylation enrichment (FGFR3): 0.655
- phosphorylation enrichment (AncSZ): 1
- phosphorylation enrichment (c-Src): 0.486
- phosphorylation enrichment (EPHB1): 0.599
- phosphorylation enrichment (Jak2): 1.04
- phosphorylation enrichment (EPHB2): 0.487
- phosphorylation enrichment (Fyn): 0.414

Sequence: KDQPDYKYQPR [SOX9_Y172_H169Q]
- SH2 binding enrichment (Grb2 SH2): 0.977
- SH2 binding enrichment (c-Src SH2): 0.493
- SH2 binding enrichment (SHP2-C SH2): 0.775
- phosphorylation enrichment (Fes): 0.643
- phosphorylation enrichment (c-Abl (mouse)): 0.519
- phosphorylation enrichment (Hck): 0.378
- phosphorylation enrichment (FGFR1): 0.431
- phosphorylation enrichment (Fer (mouse)): 0.491
- phosphorylation enrichment (MERTK): 0.415
- phosphorylation enrichment (FGFR3): 0.557
- phosphorylation enrichment (AncSZ): 0.705
- phosphorylation enrichment (c-Src): 0.396
- phosphorylation enrichment (EPHB1): 0.437
- phosphorylation enrichment (Jak2): 0.617
- phosphorylation enrichment (EPHB2): 0.415
- phosphorylation enrichment (Fyn): 0.446

The next lines start with results.

- SH2 binding enrichment (Grb2 SH2): 0.846
- SH2 binding enrichment (c-Src SH2): 0.523
- SH2 binding enrichment (SHP2-C SH2): 0.816
Sequence: KDFETYQSFQN [CTNND2_Y1157_P1159S_YF]
- phosphorylation enrichment (Fes): 0.984
- phosphorylation enrichment (c-Abl (mouse)): 0.668
- phosphorylation enrichment (Hck): 5.29
- phosphorylation enrichment (FGFR1): 0.5
- phosphorylation enrichment (Fer (mouse)): 0.493
- phosphorylation enrichment (MERTK): 0.484
- phosphorylation enrichment (FGFR3): 0.691
- phosphorylation enrichment (AncSZ): 0.958
- phosphorylation enrichment (c-Src): 4.94
- phosphorylation enrichment (EPHB1): 2
- phosphorylation enrichment (Jak2): 0.798
- phosphorylation enrichment (EPHB2): 1.17
- phosphorylation enrichment (Fyn): 6.89

- SH2 binding enrichment (Grb2 SH2): 0.727
- SH2 binding enrichment (c-Src SH2): 0.46
- SH2 binding enrichment (SHP2-C SH2): 1.04
Sequence: KEKLCYVALDF [ACTA1_Y220]
- phosphorylation enrichment (Fes): 1.17
- phosphorylation enrichment (c-Abl (mouse)): 0.877
- phosphorylation enrichment (Hck): 1.27
- phosphorylation enrichment (FGFR1): 2.4
- phosphorylation enrichment (Fer (mouse)): 1.29
- phosphorylation enrichment (MERTK): 4.72
- phosphorylation enrichment (FGFR3): 2.15
- phosphorylation enrichment (AncSZ): 1.26
- phosphorylation enrichment (c-Src): 1.81
- phosphorylation enrichment (EPHB1): 0.737
- phosphorylation enrichment (Jak2): 2.68
- phosphorylation enrichment (EPHB2): 0.676
- phosphorylation enrichment (Fyn): 1.03

Reference: the supplement of paper PMC10065799, “High-throughput profiling of sequence recognition by tyrosine kinases and SH2 domains using bacterial peptide display” (eLife, 2023)
